Laboratory results published in patent EP4613859A1, “TLR SIGNALING INHIBITORY PEPTIDE AND COMPOSITION INCLUDING SAME FOR PREVENTION OR TREATMENT OF INFLAMMATORY DISEASES” (Korea Institute of Science and Technology, priority 2022, dated 2025).

What follows are binders tested against human MyD88 (human) (UniProt Q99836) (assay: P8 phage display panning on plate-immobilised MyD88, after round 4, NGS).
Chain of UniProt Q99836 (Q99836 155-296 limits assumed): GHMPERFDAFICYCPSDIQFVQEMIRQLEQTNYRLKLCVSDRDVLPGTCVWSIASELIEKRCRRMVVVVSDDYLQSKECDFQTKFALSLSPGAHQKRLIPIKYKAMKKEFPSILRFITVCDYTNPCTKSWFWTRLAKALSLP

Binder | NGS count [count] | Population [%]
DYASSTWWLRELLQIA | 4110 | 1.58
YLRADDSWFWEKLLYA | 4070 | 1.57
YAASPWWFDELVKIVG | 3430 | 1.32
HWIDWEYFVGIEDHIK | 3420 | 1.32
IDDDHLTYLVRLLLSR | 3060 | 1.18
YASSSWALDELLRILY | 2330 | 0.9
VANILGYHWIDWEYFV | 2030 | 0.78
GLSWGPYEWWMGLYDA | 1960 | 0.76
SPQEQDGFWVRLIEAL | 1840 | 0.71
DWVWEHFFPMEEKDQT | 1540 | 0.59
MFGGDTFHDFLDLISM | 1490 | 0.57
LEANDSLFWDRLLYSL | 1460 | 0.56

These binders were tested against human MAL (human) (UniProt P58753) (assay: P8 phage display panning on plate-immobilised MAL, after round 4, NGS).
Chain of UniProt P58753 (P58753 79-221 limits assumed): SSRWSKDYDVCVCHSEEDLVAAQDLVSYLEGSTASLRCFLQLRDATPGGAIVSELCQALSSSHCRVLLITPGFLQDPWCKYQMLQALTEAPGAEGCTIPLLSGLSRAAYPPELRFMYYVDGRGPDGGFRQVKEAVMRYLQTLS

Binder | NGS count [count] | Population [%]
WFYERLVSLILRDTKV | 79000 | 24.4
TFLGHLYNALVQAGIH | 24700 | 7.64
LFFWESLKQLLRSDGR | 22600 | 5.97
YFLHFLLFSRPETEYI | 17200 | 5.31
AFFWEQLRTVLGKPTM | 11800 | 3.65
KLFWEKFKEFFLPSLSR | 4890 | 1.51
SEFIQKIILWMNPKIV | 4460 | 1.38
HFFWIQLKSILGETSF | 3620 | 1.12
WFLFTVRSAIYAMSPA | 3160 | 0.97
RNNFIGHLYQALYRIG | 3120 | 0.96
AFLYTFLINLTHPTNF | 51100 | 18.9
SLLYDHLRWLGIRAFL | 2580 | 0.8
WFMMKFRTVLDHVNDV | 2270 | 0.7
KLIQGWFLYRLLKIEQ | 2070 | 0.64
DFLNWFIALKSTVIEN | 867 | 0.27
FTLAVHVRNWLVGGFI | 520 | 0.19
WFLTAFRMAMDQVADT | 353 | 0.11
YLISYIFNELARAGFS | 295 | 0.09

What follows are binders tested against human MyD88 (human) (UniProt Q99836) (assay: P3 phage display panning on plate-immobilised MyD88, after round 4, NGS).

Binder | NGS count [count] | Population [%]
DHHLDLPRGKAIKPEILG | 26700 | 7.78
NELVHVWSSKANSLVG | 8820 | 2.57
GFLYQAFAREGFKIFM | 2580 | 0.75
LVAHEISKKMKIFATI | 17500 | 5.08
SSFREGLWRLLELSKK | 79500 | 23.1
YTALTNSGFHTFRDND | 17600 | 5.12
LKVESWRQALEKAGKL | 16800 | 4.91
EWIREQLRPALKERLP | 16800 | 4.9
YAFTGHLHRYLVQRGV | 13400 | 3.91
KNLFNELVSKNIRTFM | 8540 | 2.49
LKWGDPYFWSKLRYAM | 8310 | 2.42
SENYATSPWALDELVL | 5490 | 1.89
KEVEGWRDALTKVASL | 5190 | 1.8
SELRVVDDGSVSPLEM | 4870 | 1.42
AVDKETDKIQTPLKNA | 4790 | 1.39
NGHESEIIKEIVDTIV | 4230 | 1.23
FLSYRALEKRFGPIGQ | 3290 | 0.96
YNFISHLYDALHRNRI | 2890 | 0.84
YYLDPSHLRKQSGEFG | 2540 | 0.74
PEKDNGGENAFINNIV | 2500 | 0.73
RKGDLISDELLIAIEE | 2450 | 0.71
HLLKEFDKKLITAFKD | 2400 | 0.7
PSEVRKQTGSLAKAFA | 2250 | 0.66
TSHLHHALRLNKIETF | 2080 | 0.6
ESILNQLRRSSQSIAN | 1980 | 0.58

Each binder was assayed against human MAL (human) (UniProt P58753) (assay: P3 phage display panning on plate-immobilised MAL, after round 4, NGS).

Binder | NGS count [count] | Population [%]
DHHLDLPRGKAIKPEILG | 2280 | 0.86
NELVHVWSSKANSLVG | 1840 | 0.69
GFLYQAFAREGFKIFM | 1760 | 0.66
LVAHEISKKMKIFATI | 1670 | 0.63
SSFREGLWRLLELSKK | 30000 | 11.3
LKVESWRQALEKAGKL | 5180 | 2.32
EWIREQLRPALKERLP | 2350 | 0.88
YAFTGHLHRYLVQRGV | 43800 | 16.4
KNLFNELVSKNIRTFM | 3260 | 1.22
LKWGDPYFWSKLRYAM | 5130 | 1.93
KEVEGWRDALTKVASL | 3760 | 1.41
YNFISHLYDALHRNRI | 2680 | 1.01
ESILNQLRRSSQSIAN | 3680 | 1.38
